36 molecules from article PMC10786891, “Massively parallel profiling of RNA-targeting CRISPR-Cas13d” can be followed below.

The chains are these.
B1: target 1 insC 3' of 12,insA 3' of 10 (mixed)
RNA 1: CACCCGUGCAAAAAUGCAGGGGUCUAAAACUGAGCGGAUAACCUCUCUAUGG
RNA 2: GGGAAUGGAUCCACAUCUACGAAUUCGUACCAUAGAGAGGCUUAAUCCGCUCACCGAGAUCGGAAGAGCACACGU
B2: target 1 insG 3' of 22,insU 3' of 22 (mixed)
RNA 1: B1 RNA 1
RNA 2: B1 RNA 2 with C31G, A32U, U33C, G35U, G40A, C41G, U42G, A44U
B3: target 1 insG 3' of 19,insC 3' of 19 (mixed)
RNA 1: B1 RNA 1
RNA 2: B1 RNA 2 with A34G, G35C, G40A, C41G, U42G, A44U
B4: target 2 MT 5'PFS UAU 3'PFS UAC (mixed)
RNA 1: CACCCGUGCAAAAUUGCAGGGGUCUAAAACCUUCUCCAAAUUGUUUCAUCCU
RNA 2: GGGAAUGGAUCCACAUCUACGAAUUCUAUAGGAUGAAACAAUUUGGAGAAGUACAGAUCGGAAGAGCACACGU
B5: target 2 MT 5'PFS UUA 3'PFS ACC (mixed)
RNA 1: B4 RNA 1
RNA 2: B4 RNA 2 with A28U, U29A, U52A, A53C
B6: target 2 MT 5'PFS GGG 3'PFS CGA (mixed)
RNA 1: B4 RNA 1
RNA 2: B4 RNA 2 with U27G, A28G, U29G, U52C, A53G, C54A
B7: target 2 MT 5'PFS GCU 3'PFS UAC (mixed)
RNA 1: B4 RNA 1
RNA 2: B4 RNA 2 with U27G, A28C
B8: target 2 MT 5'PFS GAG 3'PFS CAG (mixed)
RNA 1: B4 RNA 1
RNA 2: B4 RNA 2 with U27G, U29G, U52C, C54G
B9: target 2 MT 5'PFS GGG 3'PFS AGG (mixed)
RNA 1: B4 RNA 1
RNA 2: B4 RNA 2 with U27G, A28G, U29G, U52A, A53G, C54G
B10: target 2 MT 5'PFS GCA 3'PFS CUA (mixed)
RNA 1: B4 RNA 1
RNA 2: B4 RNA 2 with U27G, A28C, U29A, U52C, A53U, C54A
B11: target 2 MT 5'PFS GCA 3'PFS CUC (mixed)
RNA 1: B4 RNA 1
RNA 2: B4 RNA 2 with U27G, A28C, U29A, U52C, A53U
B12: target 2 MT 5'PFS GUG 3'PFS AGA (mixed)
RNA 1: B4 RNA 1
RNA 2: B4 RNA 2 with U27G, A28U, U29G, U52A, A53G, C54A
B13: target 2 MT 5'PFS GUG 3'PFS AGU (mixed)
RNA 1: B4 RNA 1
RNA 2: B4 RNA 2 with U27G, A28U, U29G, U52A, A53G, C54U
B14: target 2 MT 5'PFS GAG 3'PFS CAA (mixed)
RNA 1: B4 RNA 1
RNA 2: B4 RNA 2 with U27G, U29G, U52C, C54A
B15: target 2 MT 5'PFS GGG 3'PFS AGU (mixed)
RNA 1: B4 RNA 1
RNA 2: B4 RNA 2 with U27G, A28G, U29G, U52A, A53G, C54U
B16: target 2 MT 5'PFS UUA 3'PFS ACA (mixed)
RNA 1: B4 RNA 1
RNA 2: B4 RNA 2 with A28U, U29A, U52A, A53C, C54A
B17: target 2 MT 5'PFS GAG 3'PFS CAU (mixed)
RNA 1: B4 RNA 1
RNA 2: B4 RNA 2 with U27G, U29G, U52C, C54U
B18: target 2 MT 5'PFS UAU 3'PFS UAA (mixed)
RNA 1: B4 RNA 1
RNA 2: B4 RNA 2 with C54A
B19: target 2 MT 5'PFS ACG 3'PFS AUU (mixed)
RNA 1: B4 RNA 1
RNA 2: B4 RNA 2 with U27A, A28C, U29G, U52A, A53U, C54U
B20: target 2 MT 5'PFS ACG 3'PFS AUA (mixed)
RNA 1: B4 RNA 1
RNA 2: B4 RNA 2 with U27A, A28C, U29G, U52A, A53U, C54A
B21: target 2 MT 5'PFS GUG 3'PFS AGC (mixed)
RNA 1: B4 RNA 1
RNA 2: B4 RNA 2 with U27G, A28U, U29G, U52A, A53G
B22: target 2 MT 5'PFS GGG 3'PFS AGA (mixed)
RNA 1: B4 RNA 1
RNA 2: B4 RNA 2 with U27G, A28G, U29G, U52A, A53G, C54A
B23: target 2 MT 5'PFS UUA 3'PFS ACU (mixed)
RNA 1: B4 RNA 1
RNA 2: B4 RNA 2 with A28U, U29A, U52A, A53C, C54U
B24: target 2 MT 5'PFS CAC 3'PFS UUA (mixed)
RNA 1: B4 RNA 1
RNA 2: B4 RNA 2 with U27C, U29C, A53U, C54A
B25: target 2 MT 5'PFS GGG 3'PFS CGU (mixed)
RNA 1: B4 RNA 1
RNA 2: B4 RNA 2 with U27G, A28G, U29G, U52C, A53G, C54U
B26: target 2 MT 5'PFS CAC 3'PFS UUG (mixed)
RNA 1: B4 RNA 1
RNA 2: B4 RNA 2 with U27C, U29C, A53U, C54G
B27: target 2 MT 5'PFS GUA 3'PFS CAA (mixed)
RNA 1: B4 RNA 1
RNA 2: B4 RNA 2 with U27G, A28U, U29A, U52C, C54A
B28: target 2 MT 5'PFS CAC 3'PFS UUC (mixed)
RNA 1: B4 RNA 1
RNA 2: B4 RNA 2 with U27C, U29C, A53U
B29: target 2 MT 5'PFS GCU 3'PFS UAA (mixed)
RNA 1: B4 RNA 1
RNA 2: B4 RNA 2 with U27G, A28C, C54A
B30: target 2 MT 5'PFS GAU 3'PFS AUU (mixed)
RNA 1: B4 RNA 1
RNA 2: B4 RNA 2 with U27G, U52A, A53U, C54U
B31: target 2 MT 5'PFS UUA 3'PFS ACG (mixed)
RNA 1: B4 RNA 1
RNA 2: B4 RNA 2 with A28U, U29A, U52A, A53C, C54G
B32: target 2 MT 5'PFS GGG 3'PFS AGC (mixed)
RNA 1: B4 RNA 1
RNA 2: B4 RNA 2 with U27G, A28G, U29G, U52A, A53G
B33: target 2 MT 5'PFS GGG 3'PFS CGG (mixed)
RNA 1: B4 RNA 1
RNA 2: B4 RNA 2 with U27G, A28G, U29G, U52C, A53G, C54G
B34: target 2 MT 5'PFS GUG 3'PFS AGG (mixed)
RNA 1: B4 RNA 1
RNA 2: B4 RNA 2 with U27G, A28U, U29G, U52A, A53G, C54G
B35: target 2 MT 5'PFS GGG 3'PFS CGC (mixed)
RNA 1: B4 RNA 1
RNA 2: B4 RNA 2 with U27G, A28G, U29G, U52C, A53G
B36: target 2 MT 5'PFS GAG 3'PFS CAC (mixed)
RNA 1: B4 RNA 1
RNA 2: B4 RNA 2 with U27G, U29G, U52C

Numbering of substitutions follows the chain as printed.

This series deals with T1, EsCas13d, nuclease-dead (Eubacterium siraeum, UniProt B0MS50, R295A;H300A;R849A;H854A).
T1 sequence: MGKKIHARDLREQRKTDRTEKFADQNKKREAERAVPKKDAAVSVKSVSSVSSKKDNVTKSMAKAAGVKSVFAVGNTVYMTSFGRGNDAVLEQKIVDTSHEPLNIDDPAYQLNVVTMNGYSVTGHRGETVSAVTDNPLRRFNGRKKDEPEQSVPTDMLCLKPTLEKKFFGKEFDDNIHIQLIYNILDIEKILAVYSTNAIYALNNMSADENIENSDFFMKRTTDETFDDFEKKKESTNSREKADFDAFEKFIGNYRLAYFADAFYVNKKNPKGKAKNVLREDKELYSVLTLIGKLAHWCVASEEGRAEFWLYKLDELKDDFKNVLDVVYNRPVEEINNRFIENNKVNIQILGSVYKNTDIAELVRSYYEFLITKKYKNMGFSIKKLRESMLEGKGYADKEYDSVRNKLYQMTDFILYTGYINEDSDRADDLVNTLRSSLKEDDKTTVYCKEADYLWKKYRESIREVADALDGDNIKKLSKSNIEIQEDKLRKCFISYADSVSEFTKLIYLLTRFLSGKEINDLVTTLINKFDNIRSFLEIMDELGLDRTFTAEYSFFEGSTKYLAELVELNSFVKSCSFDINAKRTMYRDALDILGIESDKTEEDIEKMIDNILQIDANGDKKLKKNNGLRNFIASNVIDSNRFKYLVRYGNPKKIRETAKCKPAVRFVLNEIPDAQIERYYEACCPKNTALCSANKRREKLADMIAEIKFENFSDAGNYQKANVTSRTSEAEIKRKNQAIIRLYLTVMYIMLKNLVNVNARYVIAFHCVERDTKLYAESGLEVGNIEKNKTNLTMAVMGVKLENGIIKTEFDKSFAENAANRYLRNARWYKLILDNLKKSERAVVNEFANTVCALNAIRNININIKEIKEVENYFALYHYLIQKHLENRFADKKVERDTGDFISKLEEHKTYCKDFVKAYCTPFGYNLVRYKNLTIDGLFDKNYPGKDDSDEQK
The series can be described thus: crRNA (strand 1, pre-loaded); Mg2+; 40 mM Tris-HCl pH 7.5, 150 mM NaCl, 6 mM MgCl2, 1 mM DTT, 0.1% Tween-20, 0.2 mg/ml BSA; 25 C; 10 min per concentration, then washed. The settings on record: tags: His6-TwinStrep-SUMO cleaved; N-terminal SNAP kept (SNAP-Surface 488); label: 3' end held by stalled T7 RNA polymerase.
As usually defined, the Kd is a measure of binding affinity in units of concentration. Read a high Kd as lower affinity. Consider B1, for which binding was characterised by a dissociation constant (Kd) of 11.7 ± 1 nM.

For the molecule B2, the Kd turned out to be 23.5 ± 2.9 nM.

As to B3, the Kd was determined as 82 ± 11 nM.

In turn, B4 had a Kd of 26 ± 6 nM.

B5: the affinity, expressed as Kd, was 45 ± 14 nM.

Consider B6, for which the Kd stood at 8.2 ± 0.7 nM.

B7 yielded a Kd of 13.2 ± 2.4 nM.

B8 came in with a Kd of 5.31 ± 0.29 nM.

For B9, binding was put at a Kd of 7.5 ± 0.5 nM.

B10 had a Kd of 10.9 ± 2.5 nM.

B11 returned a Kd of 23 ± 7 nM.

In turn, B12 returned a Kd of 10.3 ± 1.8 nM.

For the molecule B13, the Kd was 12.3 ± 1.1 nM.

Molecule B14 had a Kd of 4.9 ± 0.7 nM.

As for B15, binding was characterised by a dissociation constant (Kd) of 6.2 ± 0.5 nM.

B16 showed a Kd of 37 ± 7 nM.

B17 displayed a Kd of 5.14 ± 0.34 nM.

With B18, binding was characterised by a dissociation constant (Kd) of 18.1 ± 3 nM.

In the case of B19, binding was put at a Kd of 5.6 ± 1 nM.

For B20, binding was characterised by a dissociation constant (Kd) of 11 ± 4 nM.

In turn, B21 displayed a Kd of 7.2 ± 0.4 nM.

Molecule B22 returned a Kd of 5.5 ± 0.5 nM.

For the molecule B23, the Kd came out at 32 ± 4 nM.

Consider B24, for which binding was characterised by a dissociation constant (Kd) of 4.4 ± 0.8 nM.

B25 yielded a Kd of 9.8 ± 0.7 nM.

Turning to B26, binding was put at a Kd of 2.8 ± 0.5 nM.

On to B27, for which the affinity, expressed as Kd, was 4.8 ± 0.5 nM.

With B28, the Kd was 5.2 ± 1.2 nM.

Consider B29, for which the Kd was 7.8 ± 1.8 nM.

The molecule B30 had a Kd of 8.3 ± 0.8 nM.

Take B31: the Kd was found to be 81 ± 19 nM.

Regarding B32, binding was characterised by a dissociation constant (Kd) of 6.5 ± 0.4 nM.

The molecule B33 registered a Kd of 8.5 ± 0.5 nM.

B34 had a Kd of 11 ± 0.7 nM.

The molecule B35 returned a Kd of 10.5 ± 0.9 nM.

B36 came in with a Kd of 5.1 ± 0.5 nM.
